Source: PMC4585563, “Small angle X-ray scattering studies of CTNNBL1 dimerization and CTNNBL1/CDC5L complex” (Scientific Reports, 2015)

B1: CTNNBL1^L87R (domain or fragment, human, UniProt Q8WYA6 77-563, looked up)
chain: LDESSVKKMIRTFEKRSYKNQELRIKFPDNPEKFMESELDLNDIIQEMHVVATMPDLYHLLVELNAVQSLLGLLGHDNTDVSIAVVDLLQELTDIDTLHESEEGAEVLIDALVDGQVVALLVQNLERLDESVKEEADGVHNTLAIVENMAEFRPEMCTEGAQQGLLQWLLKRLKAKMPFDANKLYCSEVLAILLQDNDENRELLGELDGIDVLLQQLSVFKRHNPSTAEEQEMMENLFDSLCSCLMLSSNRERFLKGEGLQLMNLMLREKKISRSSALKVLDHAMIGPEGTDNCHKFVDILGLRTIFPLFMKSPRKIKKVGTTEKEHEEHVCSILASLLRNLRGQQRTRLLNKFTENDSEKVDRLMELHFKYLGAMQVADKKIEGEKHDMVRRGEIIDNDTEEEFYLRRLDAGLFVLQHICYIMAEICNANVPQIRQRVHQILNMRGSSIKIVRHIIKEYAENIGDGRSPEFRENEQKRILGLLENF
notes: human CTNNBL1, residues 77-563, point mutant made by site-directed mutagenesis; source: E. coli, purified as wild-type CTNNBL1; not shown: 6xHis, N-terminal, cleaved; VHb (bacterial hemoglobin), N-terminal, cleaved
B2: CTNNBL1^I101R (domain or fragment, human, UniProt Q8WYA6 77-563, looked up)
chain: LDESSVKKMILTFEKRSYKNQELRRKFPDNPEKFMESELDLNDIIQEMHVVATMPDLYHLLVELNAVQSLLGLLGHDNTDVSIAVVDLLQELTDIDTLHESEEGAEVLIDALVDGQVVALLVQNLERLDESVKEEADGVHNTLAIVENMAEFRPEMCTEGAQQGLLQWLLKRLKAKMPFDANKLYCSEVLAILLQDNDENRELLGELDGIDVLLQQLSVFKRHNPSTAEEQEMMENLFDSLCSCLMLSSNRERFLKGEGLQLMNLMLREKKISRSSALKVLDHAMIGPEGTDNCHKFVDILGLRTIFPLFMKSPRKIKKVGTTEKEHEEHVCSILASLLRNLRGQQRTRLLNKFTENDSEKVDRLMELHFKYLGAMQVADKKIEGEKHDMVRRGEIIDNDTEEEFYLRRLDAGLFVLQHICYIMAEICNANVPQIRQRVHQILNMRGSSIKIVRHIIKEYAENIGDGRSPEFRENEQKRILGLLENF
notes: as for B1
B3: CTNNBL1^G148R (domain or fragment, human, UniProt Q8WYA6 77-563, looked up)
chain: LDESSVKKMILTFEKRSYKNQELRIKFPDNPEKFMESELDLNDIIQEMHVVATMPDLYHLLVELNAVQSLLRLLGHDNTDVSIAVVDLLQELTDIDTLHESEEGAEVLIDALVDGQVVALLVQNLERLDESVKEEADGVHNTLAIVENMAEFRPEMCTEGAQQGLLQWLLKRLKAKMPFDANKLYCSEVLAILLQDNDENRELLGELDGIDVLLQQLSVFKRHNPSTAEEQEMMENLFDSLCSCLMLSSNRERFLKGEGLQLMNLMLREKKISRSSALKVLDHAMIGPEGTDNCHKFVDILGLRTIFPLFMKSPRKIKKVGTTEKEHEEHVCSILASLLRNLRGQQRTRLLNKFTENDSEKVDRLMELHFKYLGAMQVADKKIEGEKHDMVRRGEIIDNDTEEEFYLRRLDAGLFVLQHICYIMAEICNANVPQIRQRVHQILNMRGSSIKIVRHIIKEYAENIGDGRSPEFRENEQKRILGLLENF
notes: as for B1
B4: CTNNBL1^Q192R (domain or fragment, human, UniProt Q8WYA6 77-563, looked up)
chain: LDESSVKKMILTFEKRSYKNQELRIKFPDNPEKFMESELDLNDIIQEMHVVATMPDLYHLLVELNAVQSLLGLLGHDNTDVSIAVVDLLQELTDIDTLHESEEGAEVLIDALVDGRVVALLVQNLERLDESVKEEADGVHNTLAIVENMAEFRPEMCTEGAQQGLLQWLLKRLKAKMPFDANKLYCSEVLAILLQDNDENRELLGELDGIDVLLQQLSVFKRHNPSTAEEQEMMENLFDSLCSCLMLSSNRERFLKGEGLQLMNLMLREKKISRSSALKVLDHAMIGPEGTDNCHKFVDILGLRTIFPLFMKSPRKIKKVGTTEKEHEEHVCSILASLLRNLRGQQRTRLLNKFTENDSEKVDRLMELHFKYLGAMQVADKKIEGEKHDMVRRGEIIDNDTEEEFYLRRLDAGLFVLQHICYIMAEICNANVPQIRQRVHQILNMRGSSIKIVRHIIKEYAENIGDGRSPEFRENEQKRILGLLENF
notes: as for B1
B5: CTNNBL1^Q199R (domain or fragment, human, UniProt Q8WYA6 77-563, looked up)
chain: LDESSVKKMILTFEKRSYKNQELRIKFPDNPEKFMESELDLNDIIQEMHVVATMPDLYHLLVELNAVQSLLGLLGHDNTDVSIAVVDLLQELTDIDTLHESEEGAEVLIDALVDGQVVALLVRNLERLDESVKEEADGVHNTLAIVENMAEFRPEMCTEGAQQGLLQWLLKRLKAKMPFDANKLYCSEVLAILLQDNDENRELLGELDGIDVLLQQLSVFKRHNPSTAEEQEMMENLFDSLCSCLMLSSNRERFLKGEGLQLMNLMLREKKISRSSALKVLDHAMIGPEGTDNCHKFVDILGLRTIFPLFMKSPRKIKKVGTTEKEHEEHVCSILASLLRNLRGQQRTRLLNKFTENDSEKVDRLMELHFKYLGAMQVADKKIEGEKHDMVRRGEIIDNDTEEEFYLRRLDAGLFVLQHICYIMAEICNANVPQIRQRVHQILNMRGSSIKIVRHIIKEYAENIGDGRSPEFRENEQKRILGLLENF
notes: as for B1
B6: CDC5L^141-235 (domain or fragment, human, UniProt Q99459 141-235, looked up)
chain: PIDMDEDELEMLSEARARLANTQGKKAKRKAREKQLEEARRLAALQKRRELRAAGIEIQKKRKRKRGVDYNAEIPFEKKPALGFYDTSEENYQAL
notes: CDC5L of the human hPrp19/CDC5L complex, residues 141-235; holds NLS3 (residues 200-206: KKRKRKR); cloned into pPosKJ; pPosKJ adds 6xHis and VHb, both removed only by TEV protease; the His-tagged proteins were made without TEV, so VHb should still be on the chain in the pull-down; also called 6xHis-tagged CDC5L 141-235; source: E. coli, purified as CTNNBL1 with 300 mM NaCl in the buffers, without …

Biological target: the molecule itself
Assay: SEC; Superdex 200 10/300, 500 μl of 2 mg/ml protein, 0.5 ml/min, 40 mM Tris-HCl pH 8.0, 150 mM NaCl; molecular weight from calibration standards
Details: not given

Which “stoichiometry N” value does the source give for B1 here?
Its value is 2.

How did the “stoichiometry N” value turn out when B2 was run?
Its value is 2.

Which “stoichiometry N” value does the source give for B3 here?
The value was 2.

Which “stoichiometry N” value does the source give for B4 here?
The value was 2.

With B5 as the binder, how does the “stoichiometry N” value read?
Its value is 2.

Each binder was assayed against T1, CTNNBL1 (residues 77-563), wild type (human, UniProt Q8WYA6 77-563) (assay: pull-down; 6xHis-tagged CDC5L truncations mixed with untagged CTNNBL1 in 50 mM Tris-HCl pH 8.0, 300 mM NaCl, dialysed against 50 mM Tris-HCl without NaCl at 4 °C overnight, loaded on Ni-NTA resin, washed with 10 mM imidazole, eluted with 300 mM imidazole, SDS-PAGE). Details: both partners purified.
T1 construct: human CTNNBL1, residues 77-563, amplified from a human cDNA library; Dimer by SAXS at 0-200 mM NaCl and by SEC at 150 mM NaCl; monomer at 300-400 mM NaCl; also called native CTNNBL1; wild-type CTNNBL1; source: E. coli BL21(DE3)-T1R, purified (Ni-NTA, TEV protease, Ni-NTA, Superdex200); not shown: 6xHis, N-terminal, cleaved; VHb (bacterial hemoglobin), N-terminal, cleaved
T1 sequence (looked up): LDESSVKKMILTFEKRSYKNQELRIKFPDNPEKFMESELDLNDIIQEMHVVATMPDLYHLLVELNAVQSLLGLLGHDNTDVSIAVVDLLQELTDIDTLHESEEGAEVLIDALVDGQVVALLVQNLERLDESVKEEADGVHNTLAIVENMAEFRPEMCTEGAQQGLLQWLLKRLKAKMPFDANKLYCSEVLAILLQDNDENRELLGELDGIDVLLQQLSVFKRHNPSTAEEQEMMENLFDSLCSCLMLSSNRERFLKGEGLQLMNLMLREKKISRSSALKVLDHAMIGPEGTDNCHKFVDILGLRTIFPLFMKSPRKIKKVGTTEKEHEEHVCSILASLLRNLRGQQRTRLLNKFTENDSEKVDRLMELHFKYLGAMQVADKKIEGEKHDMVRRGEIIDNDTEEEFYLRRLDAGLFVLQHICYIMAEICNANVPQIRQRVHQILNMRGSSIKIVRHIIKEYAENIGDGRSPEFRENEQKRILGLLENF

Does B6 bind?
Result: binds
